Target: T1, recombinant human CD25 his tagged (UniProt P01589 22-213)
T1 chain: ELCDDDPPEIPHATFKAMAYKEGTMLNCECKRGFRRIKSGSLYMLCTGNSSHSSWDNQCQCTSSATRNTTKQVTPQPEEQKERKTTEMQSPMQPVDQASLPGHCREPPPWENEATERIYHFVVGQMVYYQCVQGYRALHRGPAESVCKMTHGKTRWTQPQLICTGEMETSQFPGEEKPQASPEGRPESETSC
Assay: BLI (Octet)

Kd: 0.8 nM
B1: Antibody 1 as human IgG1 expressed in mammalian cells (antibody, V domains shown)
VH: EVQLVESGGGLIQPGGSLRLSCAASGFTLDSYGVSWVRQAPGKGLEWVGVTSSGGSAYYADSVKGRFTISRDNSKNTLYLQMNSLRAEDTAVYYCARDRYVYTGGYLYHYGMDLWGQGTLVTVSS
VL: DIQMTQSPSSLSASVGDRVTITCRASQSISDYLAWYQQKPGKVPKLLIYAASTLPFGVPSRFSGSGSGTDFTLTISSLQPEDVATYYCQGTYDSSDWYWAFGGGTKVEIK

Source: patent US20210054084A1 (published 2021)
